The results in this text go back to paper PMC4491180.

Assay [1] concerns the target wild-type Grb2 (growth factor receptor-bound protein 2), bacterially expressed and purified (UniProt P62993). The experiment in a line: MST; unlabelled Grb2 (7.3 nM to about 30 μM) titrated into 100 nM Atto488-labelled Grb2; 20 °C; PBS without calcium and magnesium, 0.01% Tween 20; apparent Kd, dimer to monomers.
The target is the same in assay [2]. The experiment in a line: MST; monomer–dimer equilibrium of Grb2 in the presence of the SOS1 peptide (…); apparent Kd, dimer to monomers.

On to “wild-type Grb2 (growth factor receptor-bound protein 2), bacterially expressed and purified (from UniProt P62993 1-217) (natural protein)”, for which the figures for the Kd in assay [1] and in assay [2] were 760 nM and 700 nM, respectively.
